{"source": "paper PMC8211105", "key": {"[1]": {"biological_target": "MxiN with an N-terminal His6-tag, purified (S. flexneri) (UniProt Q6XVX6)", "assay": "BLI; His6-MxiN immobilised on Ni-NTA biosensor tips; untagged Spa33 at 400, 200, 100, 50, 25 and 12.5 µg/mL; PBS with 10% glycerol, 0.01% BSA, 0.002% Tween 20; 25°C; Octet RED96; 1:1 Langmuir model; KD from the equilibrium response (Req)"}, "[2]": {"biological_target": "Spa33^C, purified recombinant (S. flexneri)", "assay": "SEC; Spa33^C alone expressed in E. coli and purified by IMAC and Superdex 200 (20 mM Tris, 200 mM NaCl, pH 7.5); apparent homodimer"}}}
{"substance": "Wild-type Spa33 heterotrimer (one Spa33^FL with two Spa33^C), purified, untagged (from UniProt P0A1K9 1-293) (complex)", "values": [{"measurement": "Kd", "setting": "[1]", "result": 550, "unit": "nM"}]}
{"substance": "Spa33^C, purified recombinant (domain or fragment)", "values": [{"measurement": "stoichiometry N", "setting": "[2]", "result": 2}]}
